Measured values: patent US20200384107A1

Biological target: CD40 (as in Table 2, species and form not stated)
Assay: binding kinetics, method not stated

Kd: 10.2 nM
koff: 1.54e-05 s⁻¹
kon: 1510 M⁻¹ s⁻¹
Substance: 5D12 (anti-CD40 antibody)
